The values below come from patent US20250381255A1 (ANOKION, published 2025).

Changes are numbered by the printed parent chain.

For assay [1], the target named is T1, human asialoglycoprotein receptor 1 (ASGR1) extracellular domain (human, UniProt P07306 62-291).
T1 construct: The methods speak of 'human ASGR1-His'; The results paragraph says only 'ASGR1'; also called human ASGR1-His; ASGR1 ECD
T1 sequence: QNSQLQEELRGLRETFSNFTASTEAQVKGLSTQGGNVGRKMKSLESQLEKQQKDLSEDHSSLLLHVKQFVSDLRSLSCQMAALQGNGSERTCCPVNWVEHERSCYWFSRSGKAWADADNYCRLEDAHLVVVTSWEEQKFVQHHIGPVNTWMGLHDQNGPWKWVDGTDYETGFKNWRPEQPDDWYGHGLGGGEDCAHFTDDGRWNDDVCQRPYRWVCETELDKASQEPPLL
Kind of assay: apparent KD from biochemical characterisation; method not named for this value (Example 1 describes Octet BLI: IgG on AHC sensors, 100 nM ASGR1, 1:1 model). (BLI is a label-free optical method that tracks binding on a fibre tip over time.)

Assay [2] deals with T1, human asialoglycoprotein receptor 1 …. Kind of assay: apparent KD from biochemical characterisation; method not named for this value (Example 1 describes Octet BLI: IgG on AHC sensors, 100 nM ASGR1, 1:1 model); mAb-60819.
For assay [3] the target is unchanged. Nature of the assay: apparent KD from biochemical characterisation; method not named for this value (Example 1 describes Octet BLI: IgG on AHC sensors, 100 nM ASGR1, 1:1 model); mAb-60856.
Assay [4] shares this target. Kind of assay: apparent KD from biochemical characterisation; method not named for this value (Example 1 describes Octet BLI: IgG on AHC sensors, 100 nM ASGR1, 1:1 model); mAb-60869.

B1: mAb-60881 (antibody, V domains shown)
VH: QVQLQESGPGLVKPSETLSLTCAVSGYSISSGYYWGWIRQPPGKGLEWIGSIYHSGSTYYNPSLKSRVTISVDTSKNQFSLKLSSVTAADTAVYYCAREAGYPERGYGMDVWGQGTTVTVSS
VL: EIVMTQSPATLSVSPGERATLSCRASQSVSSNLAWYQQKPGQAPRLLIYGASTRATGIPARFSGSGSGTEFTLTISSLQSEDFAVYYCQQYFHHPFTFGGGTKVEIK
notes: Made as IgG
For B1, the Kd in assay [1] is about 3 nM.

B2: mAb-60819 (antibody, V domains shown)
VH: QVQLVQSGAEVKKPGSSVKVSCKASGGTFSNYAISWVRQAPGQGLEWMGGIIPIFGTANYAQKFQGRVTITADESTSTAYMELSSLRSEDTAVYYCAREARVAGTRPRGFDIWGQGTMVTVSS
VL: EIVLTQSPATLSLSPGERATLSCRASQSVSSYLAWYQQKPGQAPRLLIYDASNRATGIPARFSGSGSGTDFTLTISSLEPEDFAVYYCQQLNNFPPTFGGGTKVEIK
With B2, the Kd in assay [2] amounted to 9.29 nM.

B3: mAb-60856 (antibody, V domains shown)
VH: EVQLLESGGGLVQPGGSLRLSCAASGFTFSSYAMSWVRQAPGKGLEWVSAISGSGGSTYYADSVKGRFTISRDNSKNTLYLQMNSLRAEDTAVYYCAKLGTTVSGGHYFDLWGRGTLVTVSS
VL: B2 VL with N53K, L91D, N92S, F94H, P96L
notes: also called anti-ASGR1 antibody mAb-60856
Turning to B3, the Kd in assay [3] was found to be 9.29 nM.

B4: mAb-60869 (antibody, V domains shown)
VH: EVQLLESGGGLVQPGGSLRLSCAASGFTFSNYAMSWVRQAPGKGLEWVSAISGSGGSTYHADSVKGRFTISRDNSKNTLYLQMNSLRAEDTAVYYCARDAPYRGGHYFDLWGRGTLVTVSS
VL: B2 VL with N92A, N93S, F94W
notes: also called anti-ASGR1 antibody mAb-60869
As to B4, the Kd in assay [4] was 3.22 nM.
